B1: 5E9 (antibody, V domains shown)
VH: QVQLVQSGPEVKKPGSSVKVSCKASGYTFGHYGISWVRQAPGQGLEWMAWISAYNGNTDSIQKVQGRVTMTTDTSTNTAYLELRSLRSDDTAVYYCVRDVPATGGAATADYWGQGTTVTVSS
VL: DVVMTQSPLSLPVTLGQPASISCRSSQSLVFSDGNTYLSWFQQRPGQSPRRLIYKVSNRDSGVPDRFSASGSGTDFTLKISRVEADDVGVYYCMQVTHWPRTFGQGTRLEIKR
notes: IgG made in Expi293; also called #60; 60
B2: 9H4 (antibody, V domains shown)
VH: QVQLVQSGGGLVQPGGSLRISCTASGFTFRNYEMNWVRQAPGKGLEWVAYISSSGSSRYYADSVKGRFTISRDNAKNSLFLQMNSLRAEDMAVYYCARTDDGSSWFVSTSSFYGMDVWGQGTTVTVSS
VL: EIVLTQSPGIQSLSPGETATLSCRASESISSSYFAWYQQKPGQAPRLLIYGASSRASGIPDRFSGSGSGTDFTLTISRLEPEDFAVYYCQQYGSSPPITFGQGTRLEIKR
notes: IgG made in Expi293; also called #52; 52
B3: #52m (antibody, V domains shown)
VH: QVQLVESGGGLVQPGGSLRISCTASGFTFRNYEMNWVRQAPGKGLEWVAYISSSGSSRYYADSVKGRFTISRDNAKNSLFLQMNSLRAEDMAVYYCARTDDGSSWFVSTSSFYGMDVWGQGTTVTVSS
VL: EIVLTQSPGIQSLSPGETATLSCRASESISSSYFAWYQQKPGQAPRLLIYGASSRASGIPDRFSGSGSGTDFTLTISRLEPEDFAVYYCQQYGSSPPITFGQGTRLEIKR
notes: Germline-edited (m) form of 9H4, heavy chain edited; IgG; also called 9H4 (modified)
B4: 4H5 (antibody, V domains shown)
VH: EVQLVESGGGLVKPGGSLRLSCAGSGFTFSSYTMHWVRQAPGKGLEWVSSITGGSSYVDYSASVKGRFTISRDNAQSSLYLQMNSLRAEDTAVYYCARDDYGSGSYSNWFDPWGQGTLVTVSS
VL: QSVLTQPPSVSGAPGQRVTISCTGSSSNIGAGYDVHWYQQLPGAAPRLLMFGNSNRPSGVPDRFSGSKSGTSASLAITGLQAEDEADYYCQSYDRSLSHVFGTGTKVTVLG
notes: IgG made in Expi293
B5: 2E7 (antibody, V domains shown)
VH: EVQLVESGGGLVKPGGSLRLSCAGSGFTFSSYTMHWVRQAPGKGLEWVSSITGGSSYVDYSASVKGRFTISRDNAQSSLYLQMNSLRAEDTAVYYCARDDYGSGSYSNWFDPWGQGTLVTVSS
VL: SYELTQPPSASGTPGQRVTISCTGSSSNIGAGYDVHWYQQLPGAAPRLLMFGNSNRPSGVPDRFSGSKSGTSASLAITGLQADDEADYYCQSYDRSLSHVFGTGTKVTVLG
notes: IgG made in Expi293; also called #6
B6: 13H9 (antibody, V domains shown)
VH: QVQLVQSGAEVKKPGASVKVSCKASGYTGYTFTDYGLSWVRQAPGHGLEWMGWITAYNGDTNYAQKFQDRLSVTTDISTSTAYMELRSLKSDDTAVYYCARHVFCSGDGCYSGLGSWGQGTLVTVSS
VL: SYELIQPPSASGAPGQRVIISCSGSSSNVGSNTVNWYQQLPGTAPKLLIYDKNERPSGVPDRFSASKSGTSASLAISGLQSEDEADYYCAAWDDSLNGWVFGGGTELTVLG
notes: IgG made in Expi293; also called #47; 47
B7: #47m (antibody, V domains shown)
VH: QVQLVQSGAEVKKPGASVKVSCKASGYTGYTFTDYGLSWVRQAPGHGLEWMGWITAYNGDTNYAQKFQDRLSVTTDISTSTAYMELRSLKSDDTAVYYCARHVFCSGDGCYSGLGSWGQGTLVTVSS
VL: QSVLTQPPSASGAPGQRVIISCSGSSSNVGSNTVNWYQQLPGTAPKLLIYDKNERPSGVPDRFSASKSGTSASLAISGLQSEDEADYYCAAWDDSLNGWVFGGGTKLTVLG
notes: Germline-edited (m) form of 13H9, light chain edited; IgG; also called 13H9 (modified)
B8: 12F7 (antibody, V domains shown)
VH: QMQLVQSGPEVKKPGSSVKVSCKASGYTFTDYGLSWVRQAPGHGLEWMGWITAYNGDTNYAQKFQDRLSVTTDISTSTAYMELRSLKSDDTAVYYCARHVFCSGDGCYSGLGSWGQGTLVTVSS
VL: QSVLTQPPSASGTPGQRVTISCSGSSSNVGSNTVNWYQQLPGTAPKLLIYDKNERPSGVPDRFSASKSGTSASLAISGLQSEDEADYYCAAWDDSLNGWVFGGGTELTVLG
notes: IgG made in Expi293; also called #38; 38
B9: 4H11 (antibody, V domains shown)
VH: QVQLVQSGAEVKKPGASVKVSCKASGYTFTDYGLSWVRQAPGHGLEWMGWITAYNGDTNYAQKFQDRLSVTTDISTSTAYMELRSLKSDDTAVYYCARHVFCSGDGCYSGLGSWGQGTLVTVSS
VL: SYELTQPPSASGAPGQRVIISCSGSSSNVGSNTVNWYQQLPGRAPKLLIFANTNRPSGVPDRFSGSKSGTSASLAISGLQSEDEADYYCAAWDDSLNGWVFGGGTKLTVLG
notes: IgG made in Expi293; also called #40; 40
B10: #49m (antibody, V domains shown)
VH: QVQLVQSGAEVKKPGASVKVSCKASGYTFTDYGLSWVRQAPGHGLEWMGWITAYNGDTNYAQKFQDRLSVTTDISTSTAYMELRSLKSDDTAVYYCARHVFCSGDGCYSGLGSWGQGTLVTVSS
VL: QSVLTQPPSASGAPGQRVIISCSGSSSNVGSNTVNWYQQLPGTAPKLLIYDKNERPSGVPDRFSASKSGTSSSLAIGGLRSEDEADYYCATWDDNLNGWVFGGGTKLTVLG
notes: Germline-edited (m) form of 4H7, light chain edited; IgG; also called 4H7 (modified)
B11: 3E8 (antibody, V domains shown)
VH: QVQLVQSGSEVKKPGASVKVSCKASGYTFTDYGLSWVRQAPGHGLEWMGWITAYNGDTNYAQKFQDRLSVTTDISTSTAYMELRSLKSDDTAVYYCARHVFCSGDGCYSGLGSWGQGTLVTVSS
VL: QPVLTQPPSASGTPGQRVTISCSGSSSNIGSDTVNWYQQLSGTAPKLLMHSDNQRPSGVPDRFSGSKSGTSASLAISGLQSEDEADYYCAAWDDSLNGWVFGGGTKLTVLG
notes: IgG made in Expi293; also called #43; 43
B12: 4E9 (antibody, V domains shown)
VH: QVQLVQSGAEVKKPGSSVKVSCKASGYTFTDYGLSWVRQAPGHGLEWMGWITAYNGDTNYAQKFQDRLSVTTDISTSTAYMELRSLKSDDTAVYYCARHVFCSGDGCYSGLGSWGQGTLVTVSS
VL: QSVLTQPPSVSGAPGQRVTISCSGSSSNVGSNTVNWYQQLPGTAPKLLIYDKNERPSGVPDRFSASKSGTSSSLAIGGLRSEDEADYYCGTWDDNLNGWVFGGGTKLTVLG
notes: IgG made in Expi293; also called #48; 48
B13: 2E8 (antibody, V domains shown)
VH: QVQLVQSGPEVKKPGSSVKVSCKASGYTFTDYGLSWVRQAPGHGLEWMGWITAYNGDTNYAQKFQDRLSVTTDISTSTAYMELRSLKSDDTAVYYCARHVFCSGDGCYSGLGSWGQGTLVTVSS
VL: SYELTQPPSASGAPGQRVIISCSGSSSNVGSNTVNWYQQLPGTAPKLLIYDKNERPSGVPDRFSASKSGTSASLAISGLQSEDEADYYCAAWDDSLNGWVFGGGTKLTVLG
notes: IgG made in Expi293; also called #46; 46
B14: 4H7 (antibody, V domains shown)
VH: QVQLVQSGAEVKKPGASVKVSCKASGYTFTDYGLSWVRQAPGHGLEWMGWITAYNGDTNYAQKFQDRLSVTTDISTSTAYMELRSLKSDDTAVYYCARHVFCSGDGCYSGLGSWGQGTLVTVSS
VL: SYELTQPPSASGAPGQRVIISCSGSSSNVGSNTVNWYQQLPGTAPKLLIYDKNERPSGVPDRFSASKSGTSSSLAIGGLRSEDEADYYCATWDDNLNGWVFGGGTKLTVLG
notes: IgG made in Expi293; also called #49; 49
B15: #38m (antibody, V domains shown)
VH: QVQLVQSGAEVKKPGASVKVSCKASGYTFTDYGLSWVRQAPGHGLEWMGWITAYNGDTNYAQKFQDRLSVTTDISTSTAYMELRSLKSDDTAVYYCARHVFCSGDGCYSGLGSWGQGTLVTVSS
VL: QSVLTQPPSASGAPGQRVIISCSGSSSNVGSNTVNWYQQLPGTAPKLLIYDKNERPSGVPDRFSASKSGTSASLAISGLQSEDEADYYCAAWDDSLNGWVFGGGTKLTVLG
notes: Germline-edited (m) form of 12F7, heavy and light chain edited; IgG; also called 12F7 (modified)
B16: #42m (antibody, V domains shown)
VH: QVQLVQSGSEVKKPGASVKVSCKASGYTFTDYGLSWVRQAPGHGLEWMGWITAYNGDTNYAQKFQDRLSVTTDISTSTAYMELRSLKSDDTAVYYCARHVFCSGDGCYSGLGSWGQGTLVTVSS
VL: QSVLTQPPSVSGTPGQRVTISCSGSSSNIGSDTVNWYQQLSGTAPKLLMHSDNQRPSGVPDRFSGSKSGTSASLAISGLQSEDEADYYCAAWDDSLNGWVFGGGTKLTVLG
notes: Germline-edited (m) form of 12C10, light chain edited; IgG; also called 12C10 (modified)
B17: 12C10 (antibody, V domains shown)
VH: QVQLVQSGSEVKKPGASVKVSCKASGYTFTDYGLSWVRQAPGHGLEWMGWITAYNGDTNYAQKFQDRLSVTTDISTSTAYMELRSLKSDDTAVYYCARHVFCSGDGCYSGLGSWGQGTLVTVSS
VL: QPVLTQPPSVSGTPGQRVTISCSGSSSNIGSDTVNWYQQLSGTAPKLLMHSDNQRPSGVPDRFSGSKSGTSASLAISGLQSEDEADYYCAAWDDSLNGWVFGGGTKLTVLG
notes: IgG made in Expi293; also called #42; 42
B18: #40m (antibody, V domains shown)
VH: QVQLVQSGAEVKKPGASVKVSCKASGYTFTDYGLSWVRQAPGHGLEWMGWITAYNGDTNYAQKFQDRLSVTTDISTSTAYMELRSLKSDDTAVYYCARHVFCSGDGCYSGLGSWGQGTLVTVSS
VL: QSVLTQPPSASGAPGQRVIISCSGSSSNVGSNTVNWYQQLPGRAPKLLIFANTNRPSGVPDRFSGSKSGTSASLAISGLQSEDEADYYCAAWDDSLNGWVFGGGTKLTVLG
notes: Germline-edited (m) form of 4H11, light chain edited; IgG; also called 4H11 (modified)
B19: #50m (antibody, V domains shown)
VH: QVQLVQSGAEVKKPGASVKVSCKASGYTFTDYGLSWVRQAPGHGLEWMGWITAYNGDTNYAQKFQDRLSVTTDISTSTAYMELRSLKSDDTAVYYCARHVFCSGDGCYSGLGSWGQGTLVTVSS
VL: QSVLTQPPSASGAPGQRVIISCSGSSSNVGSNTVNWYQQLPGTAPKLLIYDKNERPSGVPDRFSASKSGTSSSLAIGGLRSEDEADYYCGTWDDNLNGWVFGGGTKLTVLG
notes: Germline-edited (m) form of 2F8, light chain edited; IgG; also called 2F8 (modified)
B20: #51m (antibody, V domains shown)
VH: EVQLVQSGAEVKKPGASVKVSCKASGYTFTDYGLSWVRQAPGHGLEWMGWITAYNGDTNYAQKFQDRLSVTTDISTSTAYMELRSLKSDDTAVYYCARHVFCSGDGCYSGLGSWGQGTLVTVSS
VL: QSVLTQPPSASGAPGQRVIISCSGSSSNVGSNTVNWYQQLPGTAPKLLIYDKNERPSGVPDRFSASKSGTSSSLAIGGLRSEDEADYYCGTWDDNLNGWVFGGGTKLTVLG
notes: Germline-edited (m) form of 3E7, heavy chain edited; IgG; also called 3E7 (modified)
B21: 4G5 (antibody, V domains shown)
VH: QVQLVQSGSEVKKPGASVKVSCKASGYTFTDYGLSWVRQAPGHGLEWMGWITAYNGDTNYAQKFQDRLSVTTDISTSTAYMELRSLKSDDTAVYYCARHVFCSGDGCYSGLGSWGQGTLVTVSS
VL: not shown
notes: IgG made in Expi293; also called #45; 45
B22: #41m (antibody, V domains shown)
VH: QVQLVQSGAEVKKPGASVKVSCKASGYTFTDYGLSWVRQAPGHGLEWMGWITAYNGDTNYAQKFQDRLSVTTDISTSTAYMELRSLKSDDTAVYYCARHVFCSGDGCYSGLGSWGQGTLVTVSS
VL: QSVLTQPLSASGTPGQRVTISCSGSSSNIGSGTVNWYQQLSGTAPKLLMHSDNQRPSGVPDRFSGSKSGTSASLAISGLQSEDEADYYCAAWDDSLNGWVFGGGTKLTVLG
notes: Germline-edited (m) form of 2G3, light chain edited; IgG; also called 2G3 (modified)
B23: 2G3 (antibody, V domains shown)
VH: QVQLVQSGAEVKKPGASVKVSCKASGYTFTDYGLSWVRQAPGHGLEWMGWITAYNGDTNYAQKFQDRLSVTTDISTSTAYMELRSLKSDDTAVYYCARHVFCSGDGCYSGLGSWGQGTLVTVSS
VL: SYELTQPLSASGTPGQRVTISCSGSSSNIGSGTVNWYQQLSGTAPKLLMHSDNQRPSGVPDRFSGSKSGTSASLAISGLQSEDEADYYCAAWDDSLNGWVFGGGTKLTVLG
notes: IgG made in Expi293; also called #41; 41
B24: 3E7 (antibody, V domains shown)
VH: EVQLVESGTEVKKPGASVKVSCKASGYTFTDYGLSWVRQAPGHGLEWMGWITAYNGDTNYAQKFQDRLSVTTDISTSTAYMELRSLKSDDTAVYYCARHVFCSGDGCYSGLGSWGQGTLVTVSS
VL: QSVLTQPPSASGAPGQRVIISCSGSSSNVGSNTVNWYQQLPGTAPKLLIYDKNERPSGVPDRFSASKSGTSSSLAIGGLRSEDEADYYCGTWDDNLNGWVFGGGTKLTVLG
notes: IgG made in Expi293; also called #51; 51
B25: #46m (antibody, V domains shown)
VH: QVQLVQSGPEVKKPGSSVKVSCKASGYTFTDYGLSWVRQAPGHGLEWMGWITAYNGDTNYAQKFQDRLSVTTDISTSTAYMELRSLKSDDTAVYYCARHVFCSGDGCYSGLGSWGQGTLVTVSS
VL: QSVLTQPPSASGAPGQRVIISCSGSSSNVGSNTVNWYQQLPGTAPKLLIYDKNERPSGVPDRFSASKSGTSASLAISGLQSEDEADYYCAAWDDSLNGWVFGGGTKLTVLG
notes: Germline-edited (m) form of 2E8, light chain edited; IgG; also called 2E8 (modified)
B26: #45m (antibody, V domains shown)
VH: QVQLVQSGSEVKKPGASVKVSCKASGYTFTDYGLSWVRQAPGHGLEWMGWITAYNGDTNYAQKFQDRLSVTTDISTSTAYMELRSLKSDDTAVYYCARHVFCSGDGCYSGLGSWGQGTLVTVSS
VL: not shown
notes: Germline-edited (m) form of 4G5, light chain edited; IgG; also called 4G5 (modified)

target: DS-Cav1 (RSV F-protein, pre-form, in-house) (respiratory syncytial virus (RSV), UniProt P03420 26-513); assay: ELISA, coated DS-Cav1, IgG titrated
Sequence (P03420 26-524): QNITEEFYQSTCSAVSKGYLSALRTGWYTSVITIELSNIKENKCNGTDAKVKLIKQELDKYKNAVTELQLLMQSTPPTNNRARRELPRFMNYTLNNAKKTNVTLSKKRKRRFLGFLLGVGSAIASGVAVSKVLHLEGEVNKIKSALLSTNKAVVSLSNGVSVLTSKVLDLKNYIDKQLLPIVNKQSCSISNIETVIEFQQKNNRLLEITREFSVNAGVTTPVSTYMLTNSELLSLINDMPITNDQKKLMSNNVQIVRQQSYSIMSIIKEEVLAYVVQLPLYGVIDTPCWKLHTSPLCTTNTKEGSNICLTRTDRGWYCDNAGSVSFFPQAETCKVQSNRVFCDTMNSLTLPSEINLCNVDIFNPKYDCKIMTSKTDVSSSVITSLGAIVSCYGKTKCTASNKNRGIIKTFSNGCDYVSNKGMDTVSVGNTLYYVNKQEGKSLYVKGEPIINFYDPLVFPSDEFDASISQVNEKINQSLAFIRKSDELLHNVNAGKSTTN

Binder	Kd [nM]
B1	~1.31
B2	~0.89
B3	~0.89
B4	~0.23
B5	~0.4
B6	~0.61
B7	~0.94
B8	~0.27
B9	~0.39
B10	~1.11
B11	~0.45
B12	~0.7
B13	~0.47
B14	~2.15
B15	~1.24
B16	~1.25
B17	~0.44
B18	~1.25
B19	~1.08
B20	~1.26
B21	~0.67
B22	~1.23
B23	~2.11
B24	~0.37
B25	~1.26
B26	~0.95

Reference: US20240182547A1 (MOGAM INSTITUTE FOR BIOMEDICAL RESEARCH, published 2024)
